Source: patent publication CN101228187A (UNIV RAMOT, dated 2008)

Biological target: MAP-PrP, multiple antigen peptide presenting amino acids 144-153 of human prion protein (human)
Test: ELISA (Fig. 9)

B1: F2 scFv (scFv)
scFv: VQLLESGGGLVQPGGSLRLSCAASGFTFSGYWMHWVRQAPGKGLEWVSEISGSGDSTHYGDSVKGRFTISRDNSKNTLYLQMNSLRAEDTAVYYCARGRNGSLDYWGQGTLVTVSSGSAGGGGSGGGGSGGGGSDIVLTQPPSASGTPGQRVTISCSGTSSNIGADYDVHWYQQLPGKAPKLLIYDNNKRPSGVSDRFSGSKSGTSASLAISGLRSEDEADYYCAAWDSSLSSVVFGGGTQLTV
notes: also called TAR1; scFv F2
B1: no binding.
